Experiment [1] concerns the target T1, human TNFR2 extracellular domain with C-terminal 10×His tag (human, UniProt P20333 23-257).
T1 construct: also called huTNFR2-His; His-tag-huTNFR2
T1 sequence: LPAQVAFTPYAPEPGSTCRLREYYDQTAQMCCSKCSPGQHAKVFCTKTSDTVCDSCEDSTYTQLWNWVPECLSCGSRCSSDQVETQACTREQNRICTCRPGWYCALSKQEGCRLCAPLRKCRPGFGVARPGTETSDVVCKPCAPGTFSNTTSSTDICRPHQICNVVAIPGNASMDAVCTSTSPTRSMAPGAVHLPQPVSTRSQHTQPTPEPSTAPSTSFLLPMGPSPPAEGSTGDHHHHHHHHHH
The experiment can be described thus: BLI (Octet RED96), antibody captured on AHC biosensor, His-tagged TNFR2 in solution, 1:1 model. On the procedure:
The following kinetic assay was performed using anti-human IgG Fc capture (AHC) biosensors (ForteBio) in kinetics buffer (PBS, 0.1% Tween-20 and 1% bovine serum albumin): (a) antibody (2 μg/mL) for 300 sec, (b) baseline for 120 sec, (c) association with His-tag-huTNFR2 (2.5, 0.5 and 0 μg/mL) and His-tag-cynoTNFR2 (2.5, 0.5 and 0 μg/mL) for 420 sec and (d) dissociation for 1200 sec. Data fitting and analysis was performed with Octet data analysis software 8.0 (ForteBio) using a 1:1 binding model after Savitzky-Golay filtering.
In general terms: BLI is a label-free optical method that tracks binding on a fibre tip over time.

Experiment [2] addresses T1, human TNFR2 extracellular domain with …. Briefly: BLI (Octet RED96), antibody captured on AHC biosensor, His-tag-huTNFR2 in solution, 1:1 model. How it is done: The following kinetic assay was performed using anti-human IgG Fc capture (AHC) biosensors (ForteBio) in kinetics buffer (PBS, 0.1% Tween-20 and 1% bovine serum albumin): (a) antibody (2 μg/mL) for 300 sec, (b) baseline for 120 sec, (c) association with His-tag-huTNFR2 (2.5, 0.5 and 0 μg/mL) for 420 sec and (d) dissociation for 1200 sec. Data fitting and analysis was performed with Octet data analysis software 8.0 (ForteBio) using a 1:1 binding model after Savitzky-Golay filtering. The dissociation constant (Kd) was calculated as the ratio of Koff/Kon.

Experiment [3] concerns the target T2, human TNFR2 expressed on cells (Expi293 cells stably expressing huTNFR2) (human, UniProt P20333 23-461).
T2 construct: whole, on cells; Also used here as the target of the Treg assay (native TNFR2 on human primary Treg cells); also called huTNFR2 expressed cells; Expi293-TNFR2 cells
T2 sequence (looked up): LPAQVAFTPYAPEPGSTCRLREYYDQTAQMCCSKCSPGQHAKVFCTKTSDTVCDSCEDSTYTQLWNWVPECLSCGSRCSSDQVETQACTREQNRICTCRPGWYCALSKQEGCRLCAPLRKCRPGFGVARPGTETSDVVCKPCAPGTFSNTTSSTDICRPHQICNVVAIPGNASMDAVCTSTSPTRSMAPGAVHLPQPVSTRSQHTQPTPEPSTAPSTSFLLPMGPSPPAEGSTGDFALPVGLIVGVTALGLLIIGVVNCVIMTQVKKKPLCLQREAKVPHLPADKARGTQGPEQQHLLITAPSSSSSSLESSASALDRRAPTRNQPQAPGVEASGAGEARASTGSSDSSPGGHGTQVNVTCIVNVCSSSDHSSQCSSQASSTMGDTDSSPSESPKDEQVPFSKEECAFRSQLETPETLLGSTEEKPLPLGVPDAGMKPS
The experiment can be described thus: flow cytometry on Expi293 cells stably expressing huTNFR2, y axis TNFR2 binding (MFI). How it is done:
The coding sequence of huTNFR2 (Uniprot, P20333) was cloned into a lentiviral vector and the virus was packaged according to the instruction of the virus packaging kit (Lenti-X™ Packaging Single Shots, Cat #631275, Takada). The Expi293 cells were transduced with the recombinant virus and selected by puromycin. The cell line stably expressing huTNFR2 was incubated with anti-TNFR2 antibodies in PBS with 0.5% BSA, 1 mM EDTA, and 0.1% sodium azide (FACS buffer) for 30 minutes at 4° C. The cells were washed, and then incubated with 10 nM phycoerythrin (PE) conjugated anti-Human Fe Ab (Biolegend, cat #409304) for 20 minutes at 4° C. Cells were washed and then […] by flow cytometry with Attune (ThermoFisher Scientific). Data were analyzed with FlowJo software. Antibody binding is represented as median fluorescence intensity (MFI).
FACS based binding and blocking assays of humanized antibodies were performed as described above.
For orientation: A flow cytometer gives signals particle by particle.

Usually Kd stands for the free concentration of one partner at which half of the binding sites on the other are occupied at equilibrium, for simple one-to-one binding. A word on the koff: it is the first-order rate constant of dissociation. For orientation: kon means a measure of how fast the partners come together. Low readings indicate slow association, high ones fast association. What is called EC50 (read off the curve) is the concentration at which the effect is half-maximal. High values mean lower potency in that assay, low ones higher potency in that assay.

Where a chain is given by its changes, count along the chain named.

B1: 6F12 chimeric anti-TNFR2 antibody (antibody, V domains shown)
VH: QIQLVQSGPELKKPGETVKISCKTSGYTFTIYGMNWVKQAPGKGLKWMGWIHTYTGEPTYADDFKGRFVFSLETSDSTAYLQINNLKSEDMATYFCVRRERYGSFWGQGTLVTVSA
VL: DIVLTQSPASLAVSLGQRATISCTASQSVDYGGVSYMNWYQQKPGQPPKLLIYGASNQESGIPVRFSGSGSGTDFTLNIHPVEEEDAATYYCQQSNEDPPTFGAGTKLELK
notes: Chimeric: mouse variable domains with human constant regions, made as recombinant IgG1
In experiment [1], B1 came in with a Kd of 3.77 nM, a koff of 0.000886 s⁻¹ and a kon of 239000 M⁻¹ s⁻¹.

B2: SB1901-68 humanized anti-TNFR2 antibody (antibody, V domains shown)
VH: QVQLVQSGAEVKKPGASVKVSCKASGYTFTDDYIDWVRQATGQGLEWIGEIYPGSGNTYYNEKFKGRVTMTRDTSISTAYMELSSLRSEDTAVYYCARSQVYGKIAMDHWGQGTLVTVSS
VL: DIVMTQSPDSLAVSLGERATINCRASESVDNSGNSFMHWYQQKPGQPPKLLIYRASNLESGVPDRFSGSGSRTDFTLTISSLQAEDVAVYYCQQSKEDPYTFGQGTKVEIK
In experiment [2], B2 displayed an equilibrium dissociation constant (Kd) of 1.95 nM, a koff of 0.000796 s⁻¹ and a kon of 408000 M⁻¹ s⁻¹.

B3: SB1901-69 humanized anti-TNFR2 antibody (antibody, V domains shown)
VH: B2 VH with I48M, T74K
VL: B2 VL with S71A, R72G
In the case of B3, in experiment [2], the Kd was determined as 1.25 nM, the koff was found to be 0.000513 s⁻¹ and the kon was 410000 M⁻¹ s⁻¹.

B4: SB1901-74 (antibody, V domains shown)
VH: B2 VH with D73N, S75A
VL: B2 VL
notes: humanized version of 51B5; also called SB1901-74 humanized anti-TNFR2 antibody
As for B4, the “EC50 (read off the curve)” value in experiment [3] is about 0.6 nM.

B5: SB1901-78 (antibody, V domains shown)
VH: B2 VH with R72A, T74K
VL: B2 VL
notes: humanized version of 51B5; also called SB1901-78 humanized anti-TNFR2 antibody
Turning to B5, the “EC50 (read off the curve)” value in experiment [3] was about 0.6 nM.

B6: SB1901-82 (antibody, V domains shown)
VH: B2 VH with T41P, I48M, I76T, A79V
VL: B2 VL
notes: humanized version of 51B5; also called SB1901-82 humanized anti-TNFR2 antibody
In the case of B6, in experiment [3], the “EC50 (read off the curve)” value was about 0.6 nM.

B7: SB1901-80 humanized anti-TNFR2 antibody (antibody, V domains shown)
VH: B2 VH with T41P, I76T, A79V
VL: B2 VL
As to B7, in experiment [2], the Kd stood at 2.52 nM, the koff worked out at 0.000937 s⁻¹ and the kon was 373000 M⁻¹ s⁻¹. In experiment [3], the “EC50 (read off the curve)” value was about 0.6 nM.
